Laboratory results reported in US20260185163A1, “MEN1 MUTATIONS AND USES THEREOF” (DANA-FARBER CANCER INSTITUTE, INC., priority 2022, published 2026).
pIC50, pKd, pKi: −log10 of the molar value.

Columns and labels:
M327I = M327I (UniProt O00255); assay: fluorescence polarization competition
T349M = T349M (UniProt O00255); assay: fluorescence polarization competition
WT = WT (UniProt O00255); assay: fluorescence polarization competition
[1] = target: StrepII-Avi-TEV-Menin (wild-type human Menin, recombinant, E. coli) (UniProt O00255); assay: fluorescence polarization
[2] = target: StrepII-Avi-TEV-Menin M327I (recombinant mutant human Menin) (UniProt O00255); assay: fluorescence polarization
[3] = target: StrepII-Avi-TEV-Menin T349M (recombinant mutant human Menin) (UniProt O00255); assay: fluorescence polarization

Row | Substance | pIC50 (M327I) | pKi (M327I) | pIC50 (T349M) | pKi (T349M) | pIC50 (WT) | pKi (WT) | pKd [1] | pKd [2] | pKd [3]
1 | MLL1 Peptide | 7.69 | 8.11 | 7.00 | 7.29 | 7.58 | 8.04 |  |  | 
2 | N-terminally FITC-labelled MLL2(15-48) peptide |  |  |  |  |  |  | 8.75 | 8.59 | 8.43
